{"source": "paper doi:10.1101/2022.01.13.476221", "key": {"[1]": {"target": "T1, unphosphorylated human MST2-FL (residues 1-484) (human) (UniProt Q13188)", "T1 sequence": "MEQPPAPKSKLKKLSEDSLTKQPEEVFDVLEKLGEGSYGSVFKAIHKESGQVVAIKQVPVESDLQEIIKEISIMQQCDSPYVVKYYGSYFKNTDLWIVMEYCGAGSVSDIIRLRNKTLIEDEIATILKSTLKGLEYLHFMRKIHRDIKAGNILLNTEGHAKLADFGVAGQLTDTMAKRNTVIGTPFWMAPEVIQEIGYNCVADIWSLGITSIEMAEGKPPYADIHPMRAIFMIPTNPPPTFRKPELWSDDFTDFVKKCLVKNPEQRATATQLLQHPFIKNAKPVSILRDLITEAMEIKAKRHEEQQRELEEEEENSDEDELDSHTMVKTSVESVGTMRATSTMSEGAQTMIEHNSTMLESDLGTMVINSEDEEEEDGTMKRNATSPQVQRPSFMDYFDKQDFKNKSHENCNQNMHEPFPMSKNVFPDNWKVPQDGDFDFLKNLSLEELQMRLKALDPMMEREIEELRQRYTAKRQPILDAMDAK"}, "[2]": {"target": "T2, unphosphorylated human MST2-K (kinase domain, residues 1-314) (human) (UniProt Q13188)", "T2 sequence": "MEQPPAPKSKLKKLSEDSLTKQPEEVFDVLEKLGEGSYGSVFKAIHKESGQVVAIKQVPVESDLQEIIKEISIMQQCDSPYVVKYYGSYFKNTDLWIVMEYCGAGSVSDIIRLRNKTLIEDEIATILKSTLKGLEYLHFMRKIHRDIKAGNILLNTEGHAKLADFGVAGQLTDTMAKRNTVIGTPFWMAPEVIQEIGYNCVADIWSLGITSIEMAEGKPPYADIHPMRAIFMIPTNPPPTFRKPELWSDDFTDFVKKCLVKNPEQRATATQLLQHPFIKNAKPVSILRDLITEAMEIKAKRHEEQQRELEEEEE"}, "[3]": {"target": "T3, unphosphorylated human MST2-KL (kinase-linker, residues 1-433) (human) (UniProt Q13188)", "T3 sequence": "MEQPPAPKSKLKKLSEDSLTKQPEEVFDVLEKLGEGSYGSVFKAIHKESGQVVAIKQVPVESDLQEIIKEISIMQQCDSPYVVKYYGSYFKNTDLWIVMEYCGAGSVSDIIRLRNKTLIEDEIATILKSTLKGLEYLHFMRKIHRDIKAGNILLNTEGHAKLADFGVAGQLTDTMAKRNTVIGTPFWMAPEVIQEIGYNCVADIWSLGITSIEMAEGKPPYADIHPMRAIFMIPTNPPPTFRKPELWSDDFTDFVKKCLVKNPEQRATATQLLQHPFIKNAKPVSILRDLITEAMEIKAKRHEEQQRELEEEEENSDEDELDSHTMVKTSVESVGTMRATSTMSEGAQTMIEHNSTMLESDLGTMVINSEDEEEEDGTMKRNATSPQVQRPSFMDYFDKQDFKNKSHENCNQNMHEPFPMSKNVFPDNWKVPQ"}}, "note": "* marks the point of attachment. Biotin = O=C1N[C@H]2[C@H](CS[C@H]2CCCCC(=O)*)N1"}
{"binder": "Biotin-GGGENWYNTLKRKK-NH2 (SMILES CC(C)C[C@H](NC(=O)[C@@H](NC(=O)[C@H](CC(N)=O)NC(=O)[C@H](Cc1ccc(O)cc1)NC(=O)[C@H](Cc1c[nH]c2ccccc12)NC(=O)[C@H](CC(N)=O)NC(=O)[C@H](CCC(=O)O)NC(=O)CNC(=O)CNC(=O)CNC(=O)CCCC[C@@H]1SC[C@@H]2NC(=O)N[C@@H]21)[C@@H](C)O)C(=O)N[C@@H](CCCCN)C(=O)N[C@@H](CCCNC(=N)N)C(=O)N[C@@H](CCCCN)C(=O)N[C@@H](CCCCN)C(N)=O)", "note": "[biotinylated peptide substrate Biotin-…-NH2]", "values": [{"measurement": "Km^app (peptide), radiometric kinase assay, steady state, 30°C", "setting": "[1]", "value": 139, "unit": "µM"}, {"measurement": "Km^app (peptide), radiometric kinase assay, steady state, 30°C", "setting": "[2]", "value": 625, "unit": "µM"}, {"measurement": "Km^app (peptide), radiometric kinase assay, steady state, 30°C", "setting": "[3]", "value": 804, "unit": "µM"}]}
